Values of other authors, collected in article PMC5323041.
Where two headings read alike, the source gives them in different places.

How the values were obtained:
oxytocin (Mus musculus) [1] = target: oxytocin (Mus musculus) (UniProt P35454)
oxytocin (Mus musculus) [2] = target: oxytocin (Mus musculus) (UniProt P35454); remark: listed apart in the source

UniProt P35454, sequence (P35454 whole entry, looked up): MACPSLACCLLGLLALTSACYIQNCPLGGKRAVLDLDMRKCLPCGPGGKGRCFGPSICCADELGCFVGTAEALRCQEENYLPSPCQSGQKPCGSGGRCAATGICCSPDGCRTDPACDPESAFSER

Substance | Kd (oxytocin (Mus musculus) [1]) | Kd (oxytocin (Mus musculus) [2])
vasopressin V1a receptor (from UniProt Q62463) | 25 nM | 
oxytocin receptor (from UniProt P97926) |  | 1 nM
